According to PMC10815899, “Glyceraldehyde 3-Phosphate Dehydrogenase on the Surface of Candida albicans and Nakaseomyces glabratus Cells—A Moonlighting Protein That Binds Human Vitronectin and Plasminogen and Can Adsorb to Pathogenic Fungal Cells via Major Adhesins Als3 and Epa6” (International Journal of Molecular Sciences, 2024):
Where “and” joins values, the source holds several entries; their conditions need not be identical. Equal entries are not always repeated.

What was measured:
[1] = target: the molecule itself; test: SEC; Superdex 200 HR 10/50, calibrated with molecular mass standards, 0.5 mL/min; buffer 20 mM Tris-HCl pH 6.7 (methods) or 50 mM NaH2PO4, 150 mM NaCl pH 7.0
[2] = target: T1, Eap1 (epithelial adhesin protein 1) on S. cerevisiae cells (C. albicans, UniProt G1UBC2 19-632); test: whole-cell binding assay (biotin-labeled protein, SA-HRP/TMB); S. cerevisiae cells presenting the adhesin (3 × 10^7 cells per tube); biotin-labeled CaGAPDH 0–400 nM, 1 h at 37 °C; one-site specific binding model, estimated dissociation constants; details: one partner purified
T1 construct: Eap1 adhesin of C. albicans presented on the surface of S. cerevisiae; source: S. cerevisiae, overexpressed and surface-presented, on cells
T1 sequence: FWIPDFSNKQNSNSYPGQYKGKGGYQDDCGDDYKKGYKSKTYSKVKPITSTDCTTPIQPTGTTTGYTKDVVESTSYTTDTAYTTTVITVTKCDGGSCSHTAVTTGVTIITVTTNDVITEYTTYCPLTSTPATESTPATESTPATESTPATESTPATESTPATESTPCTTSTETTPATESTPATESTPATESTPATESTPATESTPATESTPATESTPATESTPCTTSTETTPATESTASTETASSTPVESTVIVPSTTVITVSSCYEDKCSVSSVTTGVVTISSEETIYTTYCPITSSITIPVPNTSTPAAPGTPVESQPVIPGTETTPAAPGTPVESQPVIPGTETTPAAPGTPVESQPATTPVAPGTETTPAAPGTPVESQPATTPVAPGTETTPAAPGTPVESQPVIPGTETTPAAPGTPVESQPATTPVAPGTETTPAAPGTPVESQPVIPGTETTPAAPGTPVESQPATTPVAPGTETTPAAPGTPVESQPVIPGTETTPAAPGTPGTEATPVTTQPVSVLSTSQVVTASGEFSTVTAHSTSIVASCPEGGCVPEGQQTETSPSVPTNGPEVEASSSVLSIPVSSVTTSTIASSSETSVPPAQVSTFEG

[3] = target: T2, Hwp1 (hyphal wall protein 1) on S. cerevisiae cells (C. albicans, UniProt P46593 28-613); test: as above; details: one partner purified
T2 construct: Hyphal wall protein 1 of C. albicans presented on the surface of S. cerevisiae; source: S. cerevisiae, overexpressed and surface-presented, on cells
T2 sequence: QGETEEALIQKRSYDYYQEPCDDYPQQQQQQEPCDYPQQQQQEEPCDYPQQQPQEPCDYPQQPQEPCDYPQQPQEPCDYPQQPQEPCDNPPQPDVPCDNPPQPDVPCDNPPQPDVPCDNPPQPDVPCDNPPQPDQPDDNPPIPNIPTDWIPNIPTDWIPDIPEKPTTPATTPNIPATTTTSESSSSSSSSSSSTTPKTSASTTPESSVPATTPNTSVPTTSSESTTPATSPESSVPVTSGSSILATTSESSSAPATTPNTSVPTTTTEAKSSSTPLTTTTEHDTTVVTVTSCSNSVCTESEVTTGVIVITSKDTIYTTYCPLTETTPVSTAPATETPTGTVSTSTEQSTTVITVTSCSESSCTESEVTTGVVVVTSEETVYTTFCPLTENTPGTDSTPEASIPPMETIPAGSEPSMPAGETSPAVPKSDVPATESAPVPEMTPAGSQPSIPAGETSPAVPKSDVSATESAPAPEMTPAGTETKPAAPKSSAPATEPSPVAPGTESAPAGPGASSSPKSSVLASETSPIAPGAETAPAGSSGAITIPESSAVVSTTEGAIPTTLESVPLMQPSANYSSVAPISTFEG

[4] = target: T3, agglutinin-like sequence protein 3 (full-length Als3) on S. cerevisiae cells (C. albicans, UniProt Q59L12 18-1134); test: as above; details: one partner purified
T3 construct: source: S. cerevisiae, overexpressed and surface-presented, on cells
T3 sequence: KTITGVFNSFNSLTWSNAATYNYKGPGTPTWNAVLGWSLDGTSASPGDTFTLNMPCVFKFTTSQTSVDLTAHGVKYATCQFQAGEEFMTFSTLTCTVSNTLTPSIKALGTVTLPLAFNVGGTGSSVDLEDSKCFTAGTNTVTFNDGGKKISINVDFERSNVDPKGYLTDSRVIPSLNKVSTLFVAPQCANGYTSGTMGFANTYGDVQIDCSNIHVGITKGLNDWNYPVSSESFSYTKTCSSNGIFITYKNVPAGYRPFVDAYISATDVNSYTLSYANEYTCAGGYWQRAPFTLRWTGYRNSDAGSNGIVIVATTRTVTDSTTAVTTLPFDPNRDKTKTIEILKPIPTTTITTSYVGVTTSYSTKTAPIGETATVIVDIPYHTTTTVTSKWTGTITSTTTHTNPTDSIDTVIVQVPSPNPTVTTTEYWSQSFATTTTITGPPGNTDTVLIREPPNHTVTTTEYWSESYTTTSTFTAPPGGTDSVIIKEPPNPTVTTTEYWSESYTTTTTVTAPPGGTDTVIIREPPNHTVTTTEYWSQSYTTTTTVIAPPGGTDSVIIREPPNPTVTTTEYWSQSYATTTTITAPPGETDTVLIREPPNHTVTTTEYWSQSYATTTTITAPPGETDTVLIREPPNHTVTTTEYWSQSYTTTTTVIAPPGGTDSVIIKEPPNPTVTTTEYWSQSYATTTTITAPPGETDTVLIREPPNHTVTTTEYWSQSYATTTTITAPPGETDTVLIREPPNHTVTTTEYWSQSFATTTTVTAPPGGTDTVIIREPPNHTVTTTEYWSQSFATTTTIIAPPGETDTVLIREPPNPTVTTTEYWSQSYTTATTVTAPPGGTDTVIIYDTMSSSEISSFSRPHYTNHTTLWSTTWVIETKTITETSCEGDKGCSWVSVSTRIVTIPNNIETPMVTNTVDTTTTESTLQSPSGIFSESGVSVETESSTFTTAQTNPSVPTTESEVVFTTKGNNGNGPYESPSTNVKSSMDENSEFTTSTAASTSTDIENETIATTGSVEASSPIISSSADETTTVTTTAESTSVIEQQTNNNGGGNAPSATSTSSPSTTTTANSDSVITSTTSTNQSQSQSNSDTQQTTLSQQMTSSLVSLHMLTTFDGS

B1: recombinant Candida albicans glyceraldehyde 3-phosphate dehydrogenase (enzyme, C. albicans, UniProt Q5ADM7 1-335, looked up)
chain: MAIKIGINGFGRIGRLVLRVALGRKDIEVVAVNDPFIAPDYAAYMFKYDSTHGRYKGEVTASGDDLVIDGHKIKVFQERDPANIPWGKSGVDYVIESTGVFTKLEGAQKHIDAGAKKVIITAPSADAPMFVVGVNEDKYTPDLKIISNASCTTNCLAPLAKVVNDTFGIEEGLMTTVHSITATQKTVDGPSHKDWRGGRTASGNIIPSSTGAAKAVGKVIPELNGKLTGMSLRVPTTDVSVVDLTVRLKKAASYEEIAQAIKKASEGPLKGVLGYTEDAVVSTDFLGSSYSSIFDEKAGILLSPTFVKLISWYDNEYGYSTRVVDLLEHVAKASA
modifications: biotin (NHS-biotin) in the microplate and yeast-cell binding assays; Alexa Fluor 647 in flow cytometry
notes: no tag (pLATE11); By gel filtration predominantly a tetramer, with marked proportions of dimers and monomers; The forward primer carries ATGATG (the vector adapter's ATG and the gene's own), so an extra N-terminal Met may be present; also called CaGAPDH; GAPDH; source: E. coli Rosetta 2 (DE3), pLATE11, purified (ammonium sulfate fractionation, ResourceQ)
[1]
  stoichiometry N: 4 and 2
[2]
  Kd: 1250 nM
[3]
  Kd: 715 nM
[4]
  Kd: 95.9 nM
